The source of these data is publication PMC8849478, “Scalable manufacturing platform for the production of methemoglobin as a non-oxygen carrying control material in studies of cell-free hemoglobin solutions” (PLoS ONE, 2022).

This series concerns the molecule itself. The series can be described thus: SEC; tetramer to dimers; SEC-HPLC of samples at 1.25, 2.5, 5, 10 and 20 μM (heme basis) after incubation in 0.1 M PBS pH 7.4 at 4°C for one week; fraction of tetramers by deconvolution, Kd from the intercept of the linearised plot (Eq 3). A general note: SEC sorts molecules by how far they enter the pores of the column.

B1: bovine hemoglobin (complex)
chain 1: not shown
chain 2: not shown
notes: hemoglobin alpha chain, bovine, from whole bovine blood; hemoglobin beta chain, bovine, from whole bovine blood; alpha2beta2 tetramer with ferrous heme (HbFe2+); in equilibrium with alpha-beta dimers; also called bHb; unmodified bHb; source: purified from bovine red blood cells (lysis, tangential flow filtration); copies: 2 + 2
One may read the Kd as the constant that tells how readily two partners part at equilibrium. Lower therefore signals higher affinity. Regarding B1, the Kd came to 500 nM.

B2: bovine methemoglobin (complex)
chain 1: not shown
chain 2: not shown
notes: hemoglobin alpha chain, bovine, from whole bovine blood; hemoglobin beta chain, bovine, from whole bovine blood; same chains as m1; the heme iron is oxidised to the ferric state (HbFe3+); purity 99.7 ± 0.2%; also called metbHb; bovine metHb; copies: 2 + 2
As to B2, binding was put at a Kd of 550 nM. This Kd and that of the protein before are within 1.5-fold of each other.
